{"source": "patent US20250051474A1", "about": "“ANTI-CD97 ANTIBODIES AND ANTIBODY-DRUG CONJUGATES” (New York University, priority 2023, published 2025)", "assay_in_all_cases": "cell-based binding assay: CD97 GAIN mutant transiently expressed on ExpiCHO cells, A8 Fab titrated, flow cytometry MFI, 1:1 fit; upper panel", "key": {"Q365A": {"biological_target": "T1, Q365A (human, UniProt P48960)", "T1 construct": "transiently expressed on the surface of ExpiCHO cells, gated by anti-V5 tag staining; also called CD97 GAIN mutant Q365A expressed on ExpiCHO cells", "T1 sequence (receptor, looked up)": "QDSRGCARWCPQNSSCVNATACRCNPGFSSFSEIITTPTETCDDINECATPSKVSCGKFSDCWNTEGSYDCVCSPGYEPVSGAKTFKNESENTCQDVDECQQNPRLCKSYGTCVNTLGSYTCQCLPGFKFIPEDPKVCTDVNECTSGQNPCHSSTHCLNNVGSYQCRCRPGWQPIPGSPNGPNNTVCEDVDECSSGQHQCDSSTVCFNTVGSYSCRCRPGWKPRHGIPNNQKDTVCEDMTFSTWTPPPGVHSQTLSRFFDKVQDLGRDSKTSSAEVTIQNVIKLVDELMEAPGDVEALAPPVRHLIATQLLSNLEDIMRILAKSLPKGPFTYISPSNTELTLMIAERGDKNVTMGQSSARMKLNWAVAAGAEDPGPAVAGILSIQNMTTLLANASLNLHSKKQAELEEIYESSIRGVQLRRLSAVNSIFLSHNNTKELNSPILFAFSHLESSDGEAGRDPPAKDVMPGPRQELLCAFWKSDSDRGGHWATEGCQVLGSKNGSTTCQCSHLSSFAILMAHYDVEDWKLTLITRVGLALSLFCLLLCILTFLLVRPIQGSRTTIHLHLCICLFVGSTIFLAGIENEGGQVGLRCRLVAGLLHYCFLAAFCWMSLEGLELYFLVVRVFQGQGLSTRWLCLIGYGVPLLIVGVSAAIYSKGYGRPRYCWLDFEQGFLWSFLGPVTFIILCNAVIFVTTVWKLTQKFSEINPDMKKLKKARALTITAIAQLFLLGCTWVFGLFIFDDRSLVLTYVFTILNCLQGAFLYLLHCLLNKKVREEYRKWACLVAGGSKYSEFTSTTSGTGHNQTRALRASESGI", "procedure": "(§1) KD values were determined from the curve fitting of a 1:1 binding model."}, "[1]": {"biological_target": "T2, CD97 GAIN mutant Q376A expressed on ExpiCHO cells (human, UniProt P48960 21-835)", "T2 construct": "numbering of isoform 1; whole entry named", "T2 sequence": "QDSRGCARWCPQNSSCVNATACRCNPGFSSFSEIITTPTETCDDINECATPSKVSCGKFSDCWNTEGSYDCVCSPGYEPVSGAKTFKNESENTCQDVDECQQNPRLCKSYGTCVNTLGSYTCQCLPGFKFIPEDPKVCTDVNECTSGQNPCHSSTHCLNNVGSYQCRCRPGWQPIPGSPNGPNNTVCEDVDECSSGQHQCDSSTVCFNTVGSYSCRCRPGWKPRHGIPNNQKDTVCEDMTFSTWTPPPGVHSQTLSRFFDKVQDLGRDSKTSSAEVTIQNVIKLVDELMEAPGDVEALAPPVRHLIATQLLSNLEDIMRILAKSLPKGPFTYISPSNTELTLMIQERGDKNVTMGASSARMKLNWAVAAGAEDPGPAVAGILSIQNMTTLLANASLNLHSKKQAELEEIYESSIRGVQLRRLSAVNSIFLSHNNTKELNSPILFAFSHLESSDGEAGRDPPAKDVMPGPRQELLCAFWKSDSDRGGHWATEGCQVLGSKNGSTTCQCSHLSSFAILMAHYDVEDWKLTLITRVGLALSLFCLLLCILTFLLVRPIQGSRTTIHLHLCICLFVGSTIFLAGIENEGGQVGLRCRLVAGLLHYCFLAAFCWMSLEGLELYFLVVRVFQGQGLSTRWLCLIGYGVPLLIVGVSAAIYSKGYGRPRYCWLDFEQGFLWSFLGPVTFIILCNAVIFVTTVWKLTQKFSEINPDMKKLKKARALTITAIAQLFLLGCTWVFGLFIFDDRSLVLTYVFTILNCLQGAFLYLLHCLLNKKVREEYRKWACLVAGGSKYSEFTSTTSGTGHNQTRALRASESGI", "procedure": "as §1"}, "R380A": {"biological_target": "T3, R380A (human, UniProt P48960)", "T3 construct": "transiently expressed on the surface of ExpiCHO cells, gated by anti-V5 tag staining; also called CD97 GAIN mutant R380A expressed on ExpiCHO cells", "T3 sequence (receptor, looked up)": "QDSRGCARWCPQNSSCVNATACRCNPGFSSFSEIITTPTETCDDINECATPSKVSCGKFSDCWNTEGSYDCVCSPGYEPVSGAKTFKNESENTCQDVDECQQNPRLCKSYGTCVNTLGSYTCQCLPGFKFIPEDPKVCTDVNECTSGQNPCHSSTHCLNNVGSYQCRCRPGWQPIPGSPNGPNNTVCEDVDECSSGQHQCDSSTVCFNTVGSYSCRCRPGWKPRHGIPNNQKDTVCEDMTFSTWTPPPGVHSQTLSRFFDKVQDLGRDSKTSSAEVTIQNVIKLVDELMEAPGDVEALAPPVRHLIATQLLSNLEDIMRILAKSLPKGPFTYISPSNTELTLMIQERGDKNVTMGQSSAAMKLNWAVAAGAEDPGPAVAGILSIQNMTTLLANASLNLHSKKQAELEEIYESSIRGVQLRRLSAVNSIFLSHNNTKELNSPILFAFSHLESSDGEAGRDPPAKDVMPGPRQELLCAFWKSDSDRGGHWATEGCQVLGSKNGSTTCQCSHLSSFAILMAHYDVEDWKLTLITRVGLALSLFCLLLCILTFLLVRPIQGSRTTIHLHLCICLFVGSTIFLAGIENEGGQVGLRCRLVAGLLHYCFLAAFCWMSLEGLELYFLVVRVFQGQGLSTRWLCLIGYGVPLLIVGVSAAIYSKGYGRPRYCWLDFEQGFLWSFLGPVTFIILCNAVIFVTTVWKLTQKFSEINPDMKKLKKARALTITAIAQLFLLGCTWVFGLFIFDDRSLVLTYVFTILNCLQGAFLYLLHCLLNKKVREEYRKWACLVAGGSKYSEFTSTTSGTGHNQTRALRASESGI", "procedure": "as §1"}}}
{"binder": "Antibody clone A8, Fab format (Fab, V domains shown, Fab; also called wild type A8) VH: EVQLVESGGGLVQPGGSLRLSCAASGFTISSYSIHWVRQAPGKGLEWVASISPYYGSTSYADSVKGRFTISADTSKNTAYLQMNSLRAEDTAVYYCARSWYYYEQNPYWYQKEEQALDYWGQGTLVTVSS VL: DIQMTQSPSSLSASVGDRVTITCRASQSVSSAVAWYQQKPGKAPKLLIYSASSLYSGVPSRFSGSRSGTDFTLTISSLQPEDFATYYCQQSVYSPVTFGQGTKVEIKR", "values": [{"measurement": "Kd", "setting": "Q365A", "result": 56, "unit": "nM"}, {"measurement": "Kd", "setting": "[1]", "result": 310, "unit": "nM"}, {"measurement": "Kd", "setting": "R380A", "result": 160, "unit": "nM"}]}
